Stoichiometry N data for 1 substance are collected here from article PMC11257942.

The assay concerns the target major core protein A10 of vaccinia virus (gene product of A10) (vaccinia virus (VACV) strain Western Reserve (WR)). The experiment in a line: cryo-EM structure.

As for “major core protein A10 of vaccinia virus (gene product of A10) (natural protein)”, the stoichiometry N (commonly a count of units in the complex or per binding partner) was 3.
